Assays:
[1] = substrate: O=P(O)(O)O[C@H]1O[C@H](CO)[C@@H](O)[C@H](O)[C@@H]1O; assay: Michaelis-Menten kinetics of purified enzyme; type: biochemical, Homo sapiens; details: Mg2+; Man-1,6-P2 activator
[2] = substrate: O=P(O)(O)O[C@H]1O[C@H](CO)[C@@H](O)[C@H](O)[C@H]1O; assay: Michaelis-Menten kinetics of purified enzyme; type: biochemical, Homo sapiens; details: Mg2+; Glc-1,6-P2 activator

B1: Phosphomannomutase 2 (wt-PMM2) (Homo sapiens) (protein)
chain: MAAPGPALCLFDVDGTLTAPRQKITKEMDDFLQKLRQKIKIGVVGGSDFEKVQEQLGNDVVEKYDYVFPENGLVAYKDGKLLCRQNIQSHLGEALIQDLINYCLSYIAKIKLPKKRGTFIEFRNGMLNVSPIGRSCSQEERIEFYELDKKENIRQKFVADLRKEFAGKGLTFSIGGQISFDVFPDGWDKRYCLRHVENDGYKTIYFFGDKTMPGGNDHEIFTDPRTMGYSVTAPEDTRRICELLFS
Km [1]: 16.0 ± 1.5 µM | Km [2]: 8.2 ± 1.4 µM

B2: Phosphomannomutase 2 (F119L-PMM2) (Homo sapiens; F119L) (protein)
chain: MAAPGPALCLFDVDGTLTAPRQKITKEMDDFLQKLRQKIKIGVVGGSDFEKVQEQLGNDVVEKYDYVFPENGLVAYKDGKLLCRQNIQSHLGEALIQDLINYCLSYIAKIKLPKKRGTLIEFRNGMLNVSPIGRSCSQEERIEFYELDKKENIRQKFVADLRKEFAGKGLTFSIGGQISFDVFPDGWDKRYCLRHVENDGYKTIYFFGDKTMPGGNDHEIFTDPRTMGYSVTAPEDTRRICELLFS
Km [1]: 11.8 ± 1.0 µM | Km [2]: 15.5 ± 1.6 µM

Source: article PMC3893156
